± gives the uncertainty stated by the source.

The data set can be described thus: amyloid nucleation score (Sup35N fusion, yeast selection) (log enrichment); library NNK3; higher = more nucleation; inactive = no reads after selection. In outline: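 In psi-negative yeast, Sup35N fusions carrying peptides of 20 random codons were induced with 100 μM copper sulfate for 24 hours. The cells then grew 7 days at 30°C on medium lacking adenine and uracil, and plasmid inserts from input and output were Illumina-sequenced, excluding sequences with under 100 input reads. Nucleation score is the DiMSum log enrichment of output over input reads, centred on the mode score of non-aggregating sequences.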
With ISNGVNPGVFDAVSWLDWAV, the amyloid nucleation score result was “inactive”.

With VYHWFWMQRLNGWFENQQRK, the amyloid nucleation score result is “inactive”.

Turning to IRVIISGVLGTELKNALAKY, the amyloid nucleation score entry was “inactive”.

For the substance HINISFISYYRRRMYYNVCG, the amyloid nucleation score worked out at 1.62 ± 0.092.

The substance SAGYGLPPPVEYFNWPFSC registered an amyloid nucleation score of -0.394 ± 1.9.

Take DSFLSGSEELSVSDCCCIAF: the amyloid nucleation score result is “inactive”.

On to RFYDYYTLQVRYMTLHATNG, for which the amyloid nucleation score result was “inactive”.

Substance HHAVYIVVRMADKACDWGCC displayed an amyloid nucleation score of 1.84 ± 0.078.

Regarding VLGCFVVKGSKFVDLPEFHR, the amyloid nucleation score amounted to 1.3 ± 0.085.

Regarding TTCAVCRCIRGAMFNGSVSK, the amyloid nucleation score result is “inactive”.

Regarding SNILAA, the amyloid nucleation score entry is “inactive”.

Take IFSLYMGASCMWLMIVGWLD: the amyloid nucleation score entry was “inactive”.

For the substance FKDVSVPIR, the amyloid nucleation score result is “inactive”.

As to LFGNSNRSGCSSLRQIGCLC, the amyloid nucleation score result is “inactive”.

For the substance LRVILQLYIEGLIVQ, the amyloid nucleation score entry was “inactive”.

CFNYRLDFTQNWYMLIQCCH had an amyloid nucleation score of 0.867 ± 0.24.

For IQHSFCGRNSDLPLNVWLMW, the amyloid nucleation score entry is “inactive”.

As for SALGSSTSFYNGMRRPFRYH, the amyloid nucleation score result is “inactive”.

TSGKGFYMLSVGVRVYQWDI: the amyloid nucleation score result is “inactive”.

Substance FLTDASWGSIFWKFLRASFV had an amyloid nucleation score of 0.621 ± 0.14.

Substance ESVNGTSFPVFIYHRTSFRL had an amyloid nucleation score of 1.61 ± 0.069.

Take FVANISFWFSVFNRVYESYT: the amyloid nucleation score was 0.841 ± 0.1.

With VDFYLR, the amyloid nucleation score result was “inactive”.

For the substance NTNGMQDLSLCCRCYDTELR, the amyloid nucleation score entry was “inactive”.

As to PRGWWPMGFSCGYFVFALTP, the amyloid nucleation score result was “inactive”.

For the substance FYPLYSNEHCCG, the amyloid nucleation score result was “inactive”.

Regarding GGARMRFDQFMRHRATLASV, the amyloid nucleation score entry is “inactive”.

For SYLNRPWD, the amyloid nucleation score entry is “inactive”.

For the substance FGMPCFSSEYLLTCMVVLTG, the amyloid nucleation score entry is “inactive”.

On to HMVSTDVTENLWFRQ, for which the amyloid nucleation score result was “inactive”.

Turning to SMLAFDLGGCAQTVTGWW, the amyloid nucleation score result was “inactive”.

As for HANRSCCLPCIHLPFSRVLS, the amyloid nucleation score result was “inactive”.

On to VVVSSYNCVLVQVVICKWGR, for which the amyloid nucleation score amounted to 0.192 ± 0.85.

Regarding VSESSFRLCGGLRSGCLKSA, the amyloid nucleation score result is “inactive”.

VFLKTVAKQFCLANVKRSH: the amyloid nucleation score entry was “inactive”.

For the substance GATNDH, the amyloid nucleation score entry was “inactive”.

Consider VWDNMMIFLYWFFLKSCSHG, for which the amyloid nucleation score entry was “inactive”.

Regarding IGYLDFVHSIENVVYNWGAS, the amyloid nucleation score entry is “inactive”.

For the substance RNGIVGD, the amyloid nucleation score result was “inactive”.

IFYVWQLLYYGEQRGGS gave an amyloid nucleation score of 1.63 ± 0.088.

In the case of LTKGQ, the amyloid nucleation score result is “inactive”.

For the substance CSGTSSFRDLTCGCRHCFVG, the amyloid nucleation score came out at 1.3 ± 0.099.

Regarding IRLDSYLDNMSMLLCKYWFC, the amyloid nucleation score result is “inactive”.

For the substance GSTVEYTFGDWKYQDMSSVC, the amyloid nucleation score entry was “inactive”.

Turning to DYALC, the amyloid nucleation score result was “inactive”.

In turn, RVWHLYTMV yielded an amyloid nucleation score of -1.11 ± 1.9.

Consider VTQMKNTLY, for which the amyloid nucleation score entry was “inactive”.

For the substance TWLFFRNHTQAFCSYLAHWG, the amyloid nucleation score result is “inactive”.

For the substance VFHRSSLNSSRAGWH, the amyloid nucleation score entry was “inactive”.

Turning to IRRLDEVNEWANSYKLWKKQ, the amyloid nucleation score result was “inactive”.

Turning to LTSPREMAWCPHDTAICGTT, the amyloid nucleation score result is “inactive”.

In the case of WPSLYHQMYGVYLGLLVILK, the amyloid nucleation score entry is “inactive”.

With RLGFRCSVLSDMLYVGVLGS, the amyloid nucleation score entry was “inactive”.

Take LEDRACVFNKLIVLQ: the amyloid nucleation score result is “inactive”.

RGFNYKMLFSSDLD: the amyloid nucleation score entry was “inactive”.

In turn, MIFLRIFYGLLGNSQFIIFL returned an amyloid nucleation score of 0.331 ± 0.56.

In turn, KDKACRNCHKGVMRVTWVK had an amyloid nucleation score of 0.012 ± 0.87.

Regarding VQSKMCVKYFWGRHTRHQLG, the amyloid nucleation score entry is “inactive”.

On to ARSDHYYAVIGDVRMNILPI, for which the amyloid nucleation score entry was “inactive”.

On to ILKGL, for which the amyloid nucleation score result is “inactive”.

With DIGMDGYRLLRRSQQRYFMN, the amyloid nucleation score entry was “inactive”.

As to YPALINSVFITDAIGGPYCL, the amyloid nucleation score result was “inactive”.

In the case of IVQTLYNLAAVHSTWAIRFQ, the amyloid nucleation score is -0.142 ± 0.4.

For the substance LICYLYAKMC, the amyloid nucleation score result was “inactive”.

For FYYANMTRSKILAPFSRPSR, the amyloid nucleation score entry is “inactive”.

In the case of MKDASFQP, the amyloid nucleation score result was “inactive”.

For the substance VDRDSWSVPFCALQKHRMQK, the amyloid nucleation score entry is “inactive”.

Turning to LQIPKPFAMKYTMFQRKQND, the amyloid nucleation score result is “inactive”.

With KNGKWRGISSYRNRRFNTGI, the amyloid nucleation score result is “inactive”.

As to VKGQWR, the amyloid nucleation score entry was “inactive”.

On to CVLCYRWSHMVLTPGMTGRD, for which the amyloid nucleation score entry is “inactive”.

Turning to HNVCTKAKTRMYRVERS, the amyloid nucleation score entry was “inactive”.

Take FSLDPTIVMSVIARDSMSML: the amyloid nucleation score entry is “inactive”.

For the substance NLSALMLLLQDRDRAISRPR, the amyloid nucleation score is 0.919 ± 0.21.

Consider GVDCQASILHPCLFF, for which the amyloid nucleation score entry is “inactive”.

Regarding HAFRVSLSLVVVCCVIWDTN, the amyloid nucleation score result was “inactive”.

Consider FDNFFYWSRKRD, for which the amyloid nucleation score result is “inactive”.

Turning to SVGEKGN, the amyloid nucleation score entry is “inactive”.

MVSSLRALCPQHFVCSVVCM showed an amyloid nucleation score of 0.885 ± 0.14.

Turning to RNSRSLSLPCC, the amyloid nucleation score entry is “inactive”.

As for WAWNQSGFTPLYLCLEAWWS, the amyloid nucleation score entry is “inactive”.

Regarding PFRVLLQGIKDAPSKFIDSG, the amyloid nucleation score entry is “inactive”.

Take VCLWTVDLRIVTEGLGSHRG: the amyloid nucleation score entry is “inactive”.

With WRLEL, the amyloid nucleation score entry is “inactive”.

Regarding LVMPYDMCCTRFQRAFSVCC, the amyloid nucleation score result is “inactive”.

For the substance RVAHFY, the amyloid nucleation score entry was “inactive”.

In the case of VLLFI, the amyloid nucleation score entry is “inactive”.

As for YFLKDKPVNRMIQ, the amyloid nucleation score is 1.75 ± 0.083.

Consider SYRRIGHMRTKLGQVVR, for which the amyloid nucleation score entry is “inactive”.

WILSYLDNCARSRQ: the amyloid nucleation score result is “inactive”.

Consider NDSLTLIWNGGSGYDVIKFE, for which the amyloid nucleation score entry is “inactive”.

With RIDRFCSFFNRSPSDCLLLS, the amyloid nucleation score entry was “inactive”.

As for LNLWPNSD, the amyloid nucleation score entry was “inactive”.

Regarding MVYGVSAVEVKSSLVGWVVA, the amyloid nucleation score result was “inactive”.

Turning to RSSSCVLFTAGTQNNRVFVV, the amyloid nucleation score result is “inactive”.

As for CLDHIAPKRKIQEVGLS, the amyloid nucleation score result was “inactive”.

IVSLALSFFLDHSQVFCLNS: the amyloid nucleation score amounted to 1.36 ± 0.15.

Turning to YHTAWWAEMCIDIKNGEL, the amyloid nucleation score result is “inactive”.

For SIYYSAILMGYWMDVKSLQY, the amyloid nucleation score result was “inactive”.

With LIGNTSGMILHSTITDEAWL, the amyloid nucleation score entry is “inactive”.

RWWVNSCMEIM: the amyloid nucleation score result was “inactive”.

For the substance YIMDLKITANVLTYVACARR, the amyloid nucleation score came to 1.4 ± 0.097.

Take LDERCLLVGMAYMLVCY: the amyloid nucleation score result was “inactive”.

As for LERHL, the amyloid nucleation score result was “inactive”.

With TACLSVQMWFRFSVFSGVYL, the amyloid nucleation score entry is “inactive”.

Take RLCSKRVKSTDGGSEHRMSW: the amyloid nucleation score entry is “inactive”.

On to RHNARRWCTVSC, for which the amyloid nucleation score entry was “inactive”.

For the substance WLFRGVVRNRRALARGIRAG, the amyloid nucleation score entry was “inactive”.

For QKRIQFTSECTRKRNFWLFS, the amyloid nucleation score entry is “inactive”.

As to FHSSS, the amyloid nucleation score entry was “inactive”.

Take SWSANSCFVRIEKISLHNVG: the amyloid nucleation score result is “inactive”.

Take QTCSNYLNTFRSRRDWLVKG: the amyloid nucleation score entry is “inactive”.

On to SFSYFRVSFEYGRCHRYAEN, for which the amyloid nucleation score result is “inactive”.

Regarding LLTHRFVAGFHRKAHSCCDS, the amyloid nucleation score result was “inactive”.

LPGSDRQFPREAVHYSRMRG showed an amyloid nucleation score of 0.714 ± 0.32.

On to SGVRANFDFLASVAAHPLNS, for which the amyloid nucleation score result is “inactive”.

For YFRAFMFETS, the amyloid nucleation score result is “inactive”.

On to IARFGVKSVGWSFAENMSST, for which the amyloid nucleation score result was “inactive”.

Regarding LAVFSNRRCFFLENQYHRRS, the amyloid nucleation score entry is “inactive”.

For the substance CLNNRSFNPKMQYPLVTMDH, the amyloid nucleation score result was “inactive”.

With SCWLGVVETRHNLYDAQNGS, the amyloid nucleation score result is “inactive”.

Consider DYALI, for which the amyloid nucleation score entry was “inactive”.

For TRWSVFKLRADDRNMQASKS, the amyloid nucleation score entry is “inactive”.

On to GLFYMMLLTRMGRYRGERNG, for which the amyloid nucleation score worked out at 1.18 ± 0.1.

As for PFHGCPTHDCFNAGILALTV, the amyloid nucleation score result is “inactive”.

For the substance TEDGYNNEMSRQKVMVLINT, the amyloid nucleation score result is “inactive”.

On to TFWKKGMPGIIYRYFYLF, for which the amyloid nucleation score entry was “inactive”.

RFHSSLCCNMVWF: the amyloid nucleation score came to 3.06 ± 0.06.

AHRQMGNFR: the amyloid nucleation score is -0.701 ± 1.2.

With ICSFRTWA, the amyloid nucleation score was found to be 0.978 ± 0.1.

For the substance ADCPCYVTGCWLSYWMLYI, the amyloid nucleation score result is “inactive”.

Source of the values: the supplement of paper PMC12042874.
